Test results as given in US20260226110A1.

Target: single antigen M1 peptide segment of monkeypox virus (monkeypox virus isolate MPXV_USA_2022_MA001) (UniProt M1LBP0)
Chain of UniProt M1LBP0 (M1LBP0 1-181 limits assumed): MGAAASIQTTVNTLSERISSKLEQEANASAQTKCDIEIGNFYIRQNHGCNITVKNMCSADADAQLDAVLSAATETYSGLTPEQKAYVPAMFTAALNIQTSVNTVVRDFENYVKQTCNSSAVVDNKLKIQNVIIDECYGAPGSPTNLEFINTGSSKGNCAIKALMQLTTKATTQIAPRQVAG

Q: Which koff does the source give for neutralizing antibody 7D11 here?
A: The koff was 0.00476 s⁻¹.

Q: What about the kon of the same substance?
A: Its kon is 1.44e+06 M⁻¹ s⁻¹.
